Experiment: label from the status in PepcDB records

| Sequence | protein production |
| --- | --- |
| MRQPAIAAVDLGASKVTCFIMKADGVHRDNRTLTTAGVGYVQSRGVRGGAIVNLDEAAQAIAQAVERAETVAGVSVQGVSVCTAGGQLASHRVHTQVSLGARPIGDGDLSRAIASALAQVRIPGRKPIHLLPIAWSVDGQRGIRDPRAMFGRALGLELLVVSVNENIFHTLAHCVERAHLSFEGIVAAPFASALAALEEDEMDLGAVCIDMGGGSTSVAVFNNGALCHVDSLAVGGGHVTQDIARGLQTSVVGAERIKTLHGSAIASANEDREMIEAPPRGDDPGAGPVIAPRSLLKGIIQPRVEETLELLRERLKASGAPVEPGAGIVLTGGASQLAGVREVAVRVFDRPVRLGRPRRVPHLADAASGPAFCAAAGVLHRTAFGPREAVSSKALAGGVARKRPIDPNASPMAKAAAWLRDNL | failed |
| MKLKKEKKMAEFTFEIEEHLLTLSENEKGWTKEINRVSFNGAPAKFDIRAWSPDHTKMGKGITLSNEEFQTMVDAFKGNLEHHHHHH | not failed |
| MTGPDRVALLVLAALVLDWLLGDPRWLPHPVVAVGRLVTALERQLRRLVTNERAAGVILLVLTVGITGGTAWLLVLGAGLVHPVAGFAVEALLGWTCLAARSLHGESKLVADALAAGDLAEARFFLSRIVGRDTAELTEPEIWRGVVETVAENTSDGVIAPLFWFMIGGAPLALAYKAVNTLDSMVGYKNERYLHFGWASARFDDLVNLLPARITGLLMVLSAPLAGLSGPGAWRIMRRDGRNHSSPNAGIPEAAAAGALGVRLGGMNVYFGRPVAKPTIGDPLNPLDRTAWRGAVRLMYGSEILLTGFMLCYLFVLERP | failed |
| DEIFCRVYMPDHSYVTIRSRLSASVQDILGSVTEKLQYSEEPAGREDSLILVAVSSSGEKVLLQPTEDCVFTALGINSHLFACTRDSYEALVPLPEEIQVSPGDTEI | not failed |
| MNLDAPRVLVLNAAYEVLGLASIKRAVLLVLGGGAEMVSESGLYLNTPSTRIPVPSVVRLKRMVRRRPGRVPLNRRNVLRRDRYTCQYCGQKGGELTVDHVLPKSRGGKSTWDNLVAACRSCNLRKGDRTPEEAGMRLLRPPKPPRVPLFLLDLKEVPPDWRPFVEGLLGLEHHHHHH | not failed |
| MSQKKTSSRSSSVDDPATQYAKEVHSGERVAGPDIRNACARHLRDLEEGPKRGLTWDLDAANKAIRFYRTVLKLNGGEFEGLPFELLPWQKFIVGSIFGWKSSDGYRRFRVVYVESGKGSGKSPLAAGVGLTGLIADNEARAEIYAAATKKDQAMILFRDAVAMVQQSPELTKRLVCSGTGQNIWNLAYLKSGSFFRPISSDDGQSGPRPHMALIDEVHEHKTNMVVEMMRAGTKSRKQALIFMITNSGSNKRGPCWEYHEYGSRVASGALTDDGFFAYICSLDEGDDPIQDESCWFKSNPSLQDADLPGMKYLREQVTEARGMPSKEAMVRRLNFCEWTGAESPWISWDVWSQAEERVPMSLLRNRPSVGGLDLSSTTDLTSFVLLFYPTYEDPHWRLLPYFWIPDHELDKREARDKVPYAAWIKSRDLETTPGRAISKLHVLRRLQTICDFFQVDKIAFDRWRIEDMRQLMSEYDITLPELVEFGQGFKDMGPAVDEFERRLLGMIEQQPEEEGGAAEFFDDALPAEAVESLRHDGNPVMTWCAGNAVIVSDPANNRKADKAKATGRIDGIIAAIMATGISGAVSSGSSGSSIYDEGVGV | failed |
| YCEFLNNELRAHASDLLPTAPVPTMMLDRAWDEATLHNITQLIYDVRKDDALFRREISKPGAFDLMRKNYWDRREYSAVTLVGNETCNLAPLAELGFQIEVSQ | failed |
| MREVKLVTFDVWNTLLDLNIMLDEFSHQLAKISGLHIKDVANAVIEVRNEIKKMRAQASEDPRKVLTGSQEALAGKLKVDVELVKRATARAILNVDESLVLEGTKEALQFVKERGLKTAVIGNVMFWPGSYTRLLLERFGLMEFIDKTFFADEVLSYKPRKEMFEKVLNSFEVKPEESLHIGDTYAEDYQGARKVGMWAVWINQEGDKVRKLEERGFEIPSIANLKDVIELISKT | not failed |
| MRKNHYPLRGYISTNRSKHNLKAHLILVCKYRKKLLQGDLNNFIKSVIDEIATQSNFIIIAMESDIDHLHLMVQYIPRMSISSIISRIKQITTYRVWRDKRFIPLLQKHFWKEKTFWTDGFFVCSIGEANPETIKAYIENQG | failed |
| MEVARGLEGVLFTESRMCYIDGQQGKLYYYGIPIQELAEKSSFEETTFLLLHGRLPRRQELEEFSAALARRRALPAHLLESFKRYPVSAHPMSFLRTAVSEFGMLDPTEGDISREALYEKGLDLIAKFATIVAANKRLKEGKEPIPPREDLSHAANFLYMANGVEPSPEQARLMDAALILHAEHGFNASTFTAIAAFSTETDLYSAITAAVASLKGPRHGGANEAVMRMIQEIGTPERAREWVREKLAKKERIMGMGHRVYKAFDPRAGVLEKLARLVAEKHGHSKEYQILKIVEEEAGKVLNPRGIYPNVDFYSGVVYSDLGFSLEFFTPIFAVARISGWVGHILEYQELDNRLLRPGAKYVGELDVPYVPLEARE | not failed |
| MGIFERYLSVWVGLSIILGVILGLWQPNIFQLITEFEIAHVNIVVAVFIWVMIYPMMVQIDFSSIQNVGKNPKGLVLTIIINWFVKPFTMAALGWLFFNYLFADLVDPESAQEYIAGMILLGVAPCTAMVFVWSQLTKGDPNYTLVQVSVNDVIMIFAFAPISAFLLGVSDIQVPWETLLISVLLYVLLPLIAGVVTRRMLNKGNDKVDAQKSAEASINADEETNTNTDSTNKSLDNLLATLKPWSVIGLLATVVLLFGFQANTIISEPQTIGLIAIPLMIQTYGIFIIAYLAAKWLKLPHNIAAPACLIGTSNFFELAVAVAISLFGLHSGAALATVVGVLVEVPVMLSLVYFINHTQNWFVEGG | failed |
| MTLIPTDLSASRLSDAVRDPNREIAASSRVIDLSVGIVVCIPCFRRPQHLRLTLESLASQRTPRSFAVVMVENDAARRESAPVAAEYLADGRLQGICLVEQRQGNCQAINAAFETAQALFPAATRFLMIDDDEIASPDWLELMVRTAEATGADVVGGPVLPDFDDDSQPWLSRHPAFRPAYDYSGAVPLIYGCGNCLITRAAFDRLGSPAFDLRFNFLGGGDCDFFVRCRDAGMTFHWTTEAVITETVPQSRTSLGWIAKRGLRIGAINYRVQHKAAQGAAARVRVFAQMLGRLPLSLLRAARLLATSKAVVAMHPVMVALGSLLAALGIEPKPYEASKIVS | failed |
| VILKKIFIALIALVVIINTVSFTAVSASTPTWLEQTMNSNEPFIKEIEKETGKTRANITQTDLEAITALRVTGASDIPTNIDMLTHLTTLEVKSGTLSSVSNSVGNLKELKILVLNDNNLSTFPTIVFQLPKLEELQVSGGTIEEIPATITNMASHLKFLGILNNHLVKVPDAIFTTNWTNATGGDLDLMAAGNQIVTNIPANYISQFNNGNNLLEFYDNNYQKQDQLTTTPGYTIDVPVGTDFNQLTPDKTKLALTSGRTLLAQHEFEYYDDGSSSLIHNGVAAAPGQATIFIKSKFSTQSNKFARTQVTVNIIALNGGPITVKHEDTKGQELAPPVILNGKDGDPYTTTQKTFPGYTLVATPANQNGTFTMNPATVNYVYSANDYKLTSTFKDAQGQELKAPVVDTKDYHIQDNYTTTAATIPGYSLVSTPANQNGTFGAGNVTVNYVYKKDDYTLTSTYKDTNGQELKAPVVDATTYHYQDTYTTTAAVFPGYTLVATPTNATGTFGSSNITVNYVYQANGYQLTSTFKDQQGKTIAPDDVDAKTYHVNDPYTTTAKTIPGYTLVTTPANNQGNFGTSDITVDYVYKAEDYTLTSTYKDAQGKELKQPVVDSKKYHIQDNYSTSAAAIPGYTLVATPANETGTFHTSDVTVNYVYKLTDLKLTSTYKDAQGTELKAPVVDSKTYHIQDNYATTAAVIPGYTLVATPANQSGTFGSTDIQVNYVYQAVAYKLTSTYKDQQGNDLALPKVDTKTYHIQDGYTTSDIAIPGYTLVAAPTNQTGTFGASDVTVNYVYKANDYTLTSTYKDAQGKELKTPVIDSQKYHINDTYTTTGATIPGYTLVAAPANQSGTFGAANVTVNYVYKADDYTLTSTYKDANGKELKAPVVDSKTYHTKDNYSTSAATIPGYTLVAVPANQTGTFNTSNVTVNYVYKANEYTLTSTFKNVQGTELKPAIVKKGFIIKDGYATSGVTIPGYTLVATPSNKKGTFGASNVTVNYVYKANGYALITTYKDTQGKDLKPLAIDTKIYNINDPYTATALNIPGYTLTTTPANEKGVFGASDETVNYVYKANDYTLTTTYKDANGKELQAPKVDAKTYHIQDTYKTTAAVIPGYTLVATPKNDQGAFGANNVTVNYVYQTNDYTLTSTFKDAQGNELKAADVDAQKYHIHDTYTSKAAVIPGYTLEKTPTNETGTFNASDIQVNYVYKANDYQLTSTFKDQQGNEIALPTVDAKTYHIHDAYTTKARLIPGYSLVAAPKNQIGAFGTSDVTVNYVYKKDAIIKPITPAKPTILTIKTPASKVIKTKVVKQTLPKTGDDDAGLLNLLRLIGLVLILGVFLAVGSKKLR | failed |
| MKNMVIVLTGVTVVAGALLGYVNELTKEPIAQANAKALSDAIAIVVPGFDNNPAEAPETIELEGVTYKIYKATKGGEFIGAAVESSANGFGGALNVLVGFDKEGNIIDYSLLSHAETPGLGSKAADWFKKGGKGDITGMNPGQKALVVNKDGGQIDAITASTITTRAFLKAVNNAYAAYSGQNVDGSSGATQQVSETAADDPKAAKAQCEGTQDCCGQACDSAACKAACGGKCDPANCDKADCKKAECPKQDCKNKK | failed |
| MHSTLLRTALLTAALGSFSHTATAEGVMVHLFQWKFNDIANECETVLGPKGFGGVQITPPAEHKQGSQVWWTVYQPVSFKNFNSFGGSEAELRSMIARCNAAGVKVYADAVFNQLASGSGTATGGGSYNAGQYQYPQFGYNDFHHSGDITNYGDSNNVWNGALYGMPDLNTGSPYVQDQIATYMKTLLGWGVAGFRIDAAKHMAPTDVKAILDKAGSPKAYLEVIGAGGESPDIQPGRYTYIDTVTDFKYGTDLAANFNGQIKNLKTLGESWGLLPSAKAFVFVVNHDRERGHGGGGMLTFMSGARYDLANTFMIAWPYGWKQVMSGYRFENMSTYETDKGAPGSTPCTDSQWNCEQRRPTIMNMALFHNRTEGQPVSNWWDNGNNQIAFGRGDKGFVAINNESGSLVASLQTALPAGEYCNLLGGNDYCSGGYVTVDGSGKASLNVPGMKAAAIIAGCTKASPCGGSALPGTKFSSMNLRGTHNAWGNTPMTVDANRVWSATLTLTGNGDATGAQRFKFDVFGNWAENYGDNEGDGIADKGSSKDILVSGAGSYRITLNESDLRYTVTPLTSNQAPVAALSPKTLSVKAGESVVFDASASHDDGGVVSYSWSSGGTAATETVRFDTPGTYTVTVTVTDAEGLTASASATVTVTDDNGTYTSVLPTLNFRGTPNAWGSLAMTLVADNQWEALVTFNGQANQRFKFDVKGDWSKNYGDTNKDGVAELAGSDILTSVTGQYRVRFNDQTLQYSLTPVSVGYAKNFASLNIRGTTNNWGSTPMSLVGDHLWQASVTFTGSGDGNGGQRFKFDVKGDWTQNYGDTNRDGVAEQAGADITTALVGVYVVRFNDQTLAYSLNAQ | failed |
| FETRAKGRSGEALRSLLNLGAKDAAIIRDNREVRIPIQSLQVGDVFVVRPGEKIATDGVVVEGTSAVDQSMITGESVPVEVAQGSHVTGATMNTSGRLLVTAQRVGADTTLAAMGRLVAEAQSNKAPVQKLVDKISQ | failed |
| MAGAITHDHAAAAQGRQGGPLIVTEDVELLDDLLRLCAAAGARPEVHHTVPDGRGTWEAAPLVLVGDDAARRVRGAARRRGVVLVGRDQDDSGVWRRAVEIGADHVLLLPDGEQWLVDRIADVAEGVGRPALTVGVIGGRGGAGASTLACALAVTSARQGRRTLLVDADPLGGGLDVLLGGETAEGLRWPAFAASRGRVGGGALEESLPELHALRVLSWDRGDAVAVPPQAVRAVLAAARRRGGAVVVDLPRRVDEGAAEALAQVDLGVLVVPAELRAIAAAARVASAAGMVLGDLRVAVRGPYAPGLDDREVARLLGLPLLGEVPAEPPVPDGGVPPGGAARGPLARFCAVFWDRALVEAGGVLEHHHHHH | failed |

Reference: a protein production outcome set (Wang et al. 2014)
